Assay results taken from patent publication US20090117124A1.

Key:
[1] = target: cynomolgus monkey IgE (in cynomolgus serum, Harlan Sera-Lab Ltd) (cynomolgus monkey); assay: capture ELISA, Test 1, Cyno 1
[2] = target: cynomolgus monkey IgE (in cynomolgus serum, Harlan Sera-Lab Ltd) (cynomolgus monkey); assay: capture ELISA, Test 1, Cyno 2
[3] = target: cynomolgus monkey IgE (in cynomolgus serum, Harlan Sera-Lab Ltd) (cynomolgus monkey); assay: capture ELISA, Test 1, Cyno 3
[4] = target: cynomolgus monkey IgE (in cynomolgus serum, Harlan Sera-Lab Ltd) (cynomolgus monkey); assay: capture ELISA, Test 1, Cyno 5
[5] = target: cynomolgus monkey IgE (in cynomolgus serum, Harlan Sera-Lab Ltd) (cynomolgus monkey); assay: capture ELISA, Test 1, Cyno 7
[6] = target: cynomolgus monkey IgE (in cynomolgus serum, Harlan Sera-Lab Ltd) (cynomolgus monkey); assay: capture ELISA, Test 2, Cyno 1
[7] = target: cynomolgus monkey IgE (in cynomolgus serum, Harlan Sera-Lab Ltd) (cynomolgus monkey); assay: capture ELISA, Test 2, Cyno 2
[8] = target: cynomolgus monkey IgE (in cynomolgus serum, Harlan Sera-Lab Ltd) (cynomolgus monkey); assay: capture ELISA, Test 2, Cyno 3
[9] = target: cynomolgus monkey IgE (in cynomolgus serum, Harlan Sera-Lab Ltd) (cynomolgus monkey); assay: capture ELISA, Test 2, Cyno 5
[10] = target: cynomolgus monkey IgE (in cynomolgus serum, Harlan Sera-Lab Ltd) (cynomolgus monkey); assay: capture ELISA, Test 2, Cyno 7

IgE concentration detected [1]: 172 ng/mL
IgE concentration detected [2]: 52 ng/mL
IgE concentration detected [3]: 166 ng/mL
IgE concentration detected [4]: 232 ng/mL
IgE concentration detected [5]: 0 ng/mL
IgE concentration detected [6]: 146 ng/mL
IgE concentration detected [7]: 104 ng/mL
IgE concentration detected [8]: 135 ng/mL
IgE concentration detected [9]: 252 ng/mL
IgE concentration detected [10]: 0 ng/mL
Substance: E25 (antibody)
